Publication PMC6855506

What was measured:
[1] = target: T1, AphA (Vibrio cholerae) (UniProt Q9X399); experiment: EMSA; settings: 40 mM Tris acetate pH 7.9, 50 mM KCl, 5 mM MgCl2, 500 uM DTT, 12.5 ug/ml herring sperm DNA; EMSA 15 min at 37 C
T1 sequence: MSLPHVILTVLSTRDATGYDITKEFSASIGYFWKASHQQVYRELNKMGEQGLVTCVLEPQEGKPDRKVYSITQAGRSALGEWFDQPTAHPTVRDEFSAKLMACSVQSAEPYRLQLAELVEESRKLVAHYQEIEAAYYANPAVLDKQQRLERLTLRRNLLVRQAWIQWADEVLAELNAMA

[2] = target: T2, CRP (Vibrio cholerae) (UniProt O34015); experiment: EMSA; settings: 40 mM Tris acetate pH 7.9, 50 mM KCl, 5 mM MgCl2, 500 uM DTT, 12.5 ug/ml herring sperm DNA; EMSA 15 min at 37 C
T2 sequence: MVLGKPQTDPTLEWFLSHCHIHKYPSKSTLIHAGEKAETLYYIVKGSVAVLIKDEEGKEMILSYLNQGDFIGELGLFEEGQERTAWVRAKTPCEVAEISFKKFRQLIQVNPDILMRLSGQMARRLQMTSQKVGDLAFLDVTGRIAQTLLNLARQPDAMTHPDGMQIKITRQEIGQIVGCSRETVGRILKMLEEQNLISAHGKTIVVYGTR

Sequence | binding [1] | binding [2]
AATTCTAGAGGAGCAACAAAAAATTGACGCTGTGATACTGGTCTCATAATCTGGCGCAAAAGTATTGCATCGATGTGAGATAAGTCCAGACTTATTTCTCTTCGTAAACTATCATTAGCTTCATAAAACAAGCA / AGCTTGCTTGTTTTATGAAGCTAATGATAGTTTACGAAGAGAAATAAGTCTGGACTTATCTCACATCGATGCAATACTTTTGCGCCAGATTATGAGACCAGTATCACAGCGTCAATTTTTTGTTGCTCCTCTAG [tfoX promoter wild type] | binds | binds
AATTCCATTTCCCAAAATCCTTTGCAAACCGTGAGAGGATGATGAATCAACTTGCATAGATGCTAACAGCTATCAAAAATGGCGTTGTTTTATAAAGAGAAGTAATGGAAATGA / AGCTTCATTTCCATTACTTCTCTTTATAAAACAACGCCATTTTTGATAGCTGTTAGCATCTATGCAAGTTGATTCATCATCCTCTCACGGTTTGCAAAGGATTTTGGGAAATGG [VC0857-VC0858 intergenic region] | binds | 
